B2: (His)6-L* (purified recombinant L*DA) (natural protein)
chain: MDTQMCALFAQPLTLLPDLNICSWQTVNGSQRTFFVWTWTMTSSGLRTRAINLKQWNGLTYRSYAILSWNPRETPLHLTRVTPSPQVTKGSLLTTSIPINTKIQLICLPAVAMLATPPKTTDNCRTSWAALQMLLLLWHLSSWIKTQRRWRISLTE

Columns and labels:
[1] = target: T1, mouse RNase L (Mus musculus (mouse)) (UniProt Q05921); assay: SPR competition; conditions: 2'-5' phosphodiester linkages; 5'-triphosphate; trimer p3A2'p5'A2'p5'A assumed (oligomer length used in SPR not stated); SPR on Biacore 3000; HBS-P SPR buffer (0.005% surfactant P20), 10 ul/min, 3 min association, 5 min dissociation, 25 C stated for GST-RNase L capture; 1:1 …
T1 sequence: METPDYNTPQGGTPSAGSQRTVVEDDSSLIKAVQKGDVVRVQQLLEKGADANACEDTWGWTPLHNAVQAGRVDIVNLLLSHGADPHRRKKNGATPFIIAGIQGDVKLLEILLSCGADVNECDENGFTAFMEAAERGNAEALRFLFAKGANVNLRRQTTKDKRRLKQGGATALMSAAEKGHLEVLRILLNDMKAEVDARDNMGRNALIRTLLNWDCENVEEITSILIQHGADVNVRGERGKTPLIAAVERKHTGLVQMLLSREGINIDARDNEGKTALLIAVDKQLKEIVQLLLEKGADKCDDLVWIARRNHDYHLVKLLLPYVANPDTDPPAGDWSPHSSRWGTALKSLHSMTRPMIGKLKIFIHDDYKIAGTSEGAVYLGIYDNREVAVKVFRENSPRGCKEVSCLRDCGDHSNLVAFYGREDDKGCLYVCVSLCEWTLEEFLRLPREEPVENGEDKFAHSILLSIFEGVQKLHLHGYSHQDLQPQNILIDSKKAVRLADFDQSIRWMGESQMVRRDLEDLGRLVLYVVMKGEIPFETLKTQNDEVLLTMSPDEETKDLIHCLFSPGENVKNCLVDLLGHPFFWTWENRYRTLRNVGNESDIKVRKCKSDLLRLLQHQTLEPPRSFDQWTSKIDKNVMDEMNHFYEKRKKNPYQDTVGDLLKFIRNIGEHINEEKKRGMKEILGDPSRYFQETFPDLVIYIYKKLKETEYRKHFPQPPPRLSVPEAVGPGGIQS

[2] = target: B2; assay: SPR; immobilized L*
[3] = target: (His)6-L* (purified recombinant L*DA) (Theiler's murine encephalomyelitis virus, strain DA); assay: SPR; Biacore 3000; (His)6-L* immobilized on Ni-NTA chips, mouse or human RNase L injected; 10 μl/min, 3 min association, 5 min dissociation; 1:1 Langmuir model, global fitting
[4] = target: B2; assay: SPR; immobilized L*
[5] = target: T2, purified recombinant GST-tagged murine RNase L (mouse, UniProt Q05921 1-735); assay: SPR; immobilized mouse RNase L
T2 chain: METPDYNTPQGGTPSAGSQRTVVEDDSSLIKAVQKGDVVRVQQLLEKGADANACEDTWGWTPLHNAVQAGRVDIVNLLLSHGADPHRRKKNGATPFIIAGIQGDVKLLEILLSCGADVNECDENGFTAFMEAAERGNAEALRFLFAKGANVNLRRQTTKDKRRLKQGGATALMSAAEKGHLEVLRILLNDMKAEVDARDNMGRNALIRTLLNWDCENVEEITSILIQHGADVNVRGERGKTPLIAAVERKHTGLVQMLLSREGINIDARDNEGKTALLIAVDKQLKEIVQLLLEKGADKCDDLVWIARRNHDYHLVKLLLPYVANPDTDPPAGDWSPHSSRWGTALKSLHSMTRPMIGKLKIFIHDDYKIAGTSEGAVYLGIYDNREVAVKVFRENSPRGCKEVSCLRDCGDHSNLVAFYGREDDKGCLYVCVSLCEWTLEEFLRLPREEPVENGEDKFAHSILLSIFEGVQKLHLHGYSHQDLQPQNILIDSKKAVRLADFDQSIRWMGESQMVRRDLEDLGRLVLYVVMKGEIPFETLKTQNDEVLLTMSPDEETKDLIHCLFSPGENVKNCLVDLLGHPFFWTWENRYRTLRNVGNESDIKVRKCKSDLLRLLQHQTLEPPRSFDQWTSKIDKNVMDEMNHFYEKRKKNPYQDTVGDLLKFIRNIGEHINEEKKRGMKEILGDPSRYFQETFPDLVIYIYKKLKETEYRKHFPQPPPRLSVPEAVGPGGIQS

[6] = target: T2, purified recombinant GST-tagged murine …; assay: SPR; immobilized mouse RNase L
[7] = target: T2, purified recombinant GST-tagged murine …; assay: SPR; immobilized mouse RNase L

For AAA [2-5A (unlabeled)], which IC50 [1] is on record?
Its IC50 is 13.2 nM.

B1: purified recombinant mouse RNase L (enzyme)
chain: METPDYNTPQGGTPSAGSQRTVVEDDSSLIKAVQKGDVVRVQQLLEKGADANACEDTWGWTPLHNAVQAGRVDIVNLLLSHGADPHRRKKNGATPFIIAGIQGDVKLLEILLSCGADVNECDENGFTAFMEAAERGNAEALRFLFAKGANVNLRRQTTKDKRRLKQGGATALMSAAEKGHLEVLRILLNDMKAEVDARDNMGRNALIRTLLNWDCENVEEITSILIQHGADVNVRGERGKTPLIAAVERKHTGLVQMLLSREGINIDARDNEGKTALLIAVDKQLKEIVQLLLEKGADKCDDLVWIARRNHDYHLVKLLLPYVANPDTDPPAGDWSPHSSRWGTALKSLHSMTRPMIGKLKIFIHDDYKIAGTSEGAVYLGIYDNREVAVKVFRENSPRGCKEVSCLRDCGDHSNLVAFYGREDDKGCLYVCVSLCEWTLEEFLRLPREEPVENGEDKFAHSILLSIFEGVQKLHLHGYSHQDLQPQNILIDSKKAVRLADFDQSIRWMGESQMVRRDLEDLGRLVLYVVMKGEIPFETLKTQNDEVLLTMSPDEETKDLIHCLFSPGENVKNCLVDLLGHPFFWTWENRYRTLRNVGNESDIKVRKCKSDLLRLLQHQTLEPPRSFDQWTSKIDKNVMDEMNHFYEKRKKNPYQDTVGDLLKFIRNIGEHINEEKKRGMKEILGDPSRYFQETFPDLVIYIYKKLKETEYRKHFPQPPPRLSVPEAVGPGGIQS
How did the koff [2] turn out when B1 was run?
Its koff is 0.0027 s⁻¹.

What about the Kd [3] of the same molecule?
Its Kd is 1300 nM.

And the Ka [4]?
Its Ka is 760000 M⁻¹.

Which results are given for B2?
Ka [5]: 2e+06 M⁻¹; Kd [6]: 490 nM; koff [7]: 0.0015 s⁻¹
